Test results as given in article PMC12415261 (Proceedings of the National Academy of Sciences of the …, 2025).

B1: ALK3-Fc (homodimeric Fc-fusion of ALK3-ECD) [human] / Recombinant human BMP6, mammalian expressed (glycosylated) [modified: N-linked glycosylation at Asn454 (prehelical loop); N-linked glycosylation at Asn454 (prehelical loop)] [human] (parent complex)
chain 1: QNLDSMLHGTGMKSDSDQKKSENGVTLAPEDTLPFLKCYCSGHCPDDAINNTCITNGHCFAIIEEDDQGETTLASGCMKYEGSDFQCKDSPKAQLRRTIECCRTNLCNQYLQPTLPPVVIGPFFDGSIR
chain 2: SASSRRRQQSRNRSTQSQDVARVSSASDYNSSELKTACRKHELYVSFQDLGWQDWIIAPKGYAANYCDGECSFPLNAHMNATNHAIVQTLVHLMNPEYVPKPCCAPTKLNAISVLYFDDNSNVILKKYRNMVVRACGCH

Variants of: B1
Assay: SPR; top curve of the analyte series, read at the end of association (about 300 s); analyte concentrations not given; receptor-Fc captured by anti-human antibody; read off a plot
Work on chain 1 QNLDSMLHGTGMKSDSDQKKSENGVTLAPEDTLPFLKCYCSGHCPGDAINNTCITNGHCFAIIEEDDQGETTLASGCMKYEGSDFQCKDSPKAQLRRTIECCRTNLCNQYLQPTLPPVVIGPFFDGSIR [chain 1 D46G] yielded a response of about 9.5 RLU.
